The target in assay [1] is fusion protein comprising the extracellular domain of hTEASR and the cytoplasmic region of Fas, expressed on Ba/F3 cells (human) (UniProt Q9Y5U5). Nature of the assay: cell-based or functional assay.
Assay [2] addresses human glucocorticoid-induced tumor necrosis factor family-related receptor (TEASR) (human) (UniProt Q9Y5U5). Nature of the assay: cell-based or functional assay.

On to “human TEASR ligand (TEASR-L) (from UniProt Q9UNG2 1-177)”, for which the apoptotic cell death, 51Cr release from transfected Ba/F3 cells (in the presence of control IgG1) in assay [1] is 23 % release.
With “hTEASR-L-Ig fusion protein (from UniProt Q9UNG2 49-177) (Fc fusion)”, in assay [2], the proliferation of CD4+ T cells in the presence of CD32/CD58/CD80 feeder L cells was determined as 2.5 fold and the proliferation of CD8+ T cells in the presence of CD32 feeder L cells came to 5.6 fold.

The values are drawn from patent publication US20070178093A1.
